Tests used:
VEGFR2 = VEGFR2 (UniProt P35968)
[1] = molecular target: insulin-like growth-factor-1 receptor beta subunit (IGF-1Rβ) (UniProt P08069)
insulin-like growth-factor-1 receptor beta subunit (IGF-1Rβ), sequence (P08069 whole entry, looked up, tested part not stated): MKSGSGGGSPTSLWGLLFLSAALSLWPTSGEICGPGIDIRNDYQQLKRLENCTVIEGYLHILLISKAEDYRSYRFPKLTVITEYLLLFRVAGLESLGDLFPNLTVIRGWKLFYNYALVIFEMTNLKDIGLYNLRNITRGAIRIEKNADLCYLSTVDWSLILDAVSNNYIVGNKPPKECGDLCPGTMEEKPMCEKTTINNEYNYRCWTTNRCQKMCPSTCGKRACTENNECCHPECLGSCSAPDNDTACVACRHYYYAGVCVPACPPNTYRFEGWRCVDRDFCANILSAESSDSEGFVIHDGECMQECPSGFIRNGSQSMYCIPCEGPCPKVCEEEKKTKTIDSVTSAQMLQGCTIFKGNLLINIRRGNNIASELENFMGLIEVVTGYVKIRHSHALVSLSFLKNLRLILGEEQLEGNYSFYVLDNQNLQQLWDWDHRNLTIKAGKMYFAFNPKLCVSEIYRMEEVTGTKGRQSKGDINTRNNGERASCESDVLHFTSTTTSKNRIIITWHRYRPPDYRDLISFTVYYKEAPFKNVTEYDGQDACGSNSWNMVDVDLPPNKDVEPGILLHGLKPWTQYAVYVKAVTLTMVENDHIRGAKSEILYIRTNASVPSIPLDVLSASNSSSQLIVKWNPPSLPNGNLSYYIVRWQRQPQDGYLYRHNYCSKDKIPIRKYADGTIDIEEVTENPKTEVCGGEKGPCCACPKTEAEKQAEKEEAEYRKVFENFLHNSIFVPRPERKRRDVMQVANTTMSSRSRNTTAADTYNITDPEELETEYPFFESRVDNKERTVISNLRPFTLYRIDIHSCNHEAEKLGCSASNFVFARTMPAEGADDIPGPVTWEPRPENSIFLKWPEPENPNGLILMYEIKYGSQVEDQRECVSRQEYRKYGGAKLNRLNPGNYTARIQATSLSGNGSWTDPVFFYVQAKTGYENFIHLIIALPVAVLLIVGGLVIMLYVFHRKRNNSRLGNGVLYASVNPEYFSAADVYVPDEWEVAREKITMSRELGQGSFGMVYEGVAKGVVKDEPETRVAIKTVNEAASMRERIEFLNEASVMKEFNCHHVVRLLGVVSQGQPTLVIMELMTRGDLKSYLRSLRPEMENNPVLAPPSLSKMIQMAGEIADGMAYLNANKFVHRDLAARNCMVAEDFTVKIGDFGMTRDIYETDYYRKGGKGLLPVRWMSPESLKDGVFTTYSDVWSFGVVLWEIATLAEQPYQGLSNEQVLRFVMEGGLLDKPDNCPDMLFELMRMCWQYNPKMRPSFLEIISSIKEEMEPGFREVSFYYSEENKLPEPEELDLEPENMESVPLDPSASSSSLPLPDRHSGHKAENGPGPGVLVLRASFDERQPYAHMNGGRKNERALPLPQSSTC

VEGFR2, sequence (P35968 20-1356): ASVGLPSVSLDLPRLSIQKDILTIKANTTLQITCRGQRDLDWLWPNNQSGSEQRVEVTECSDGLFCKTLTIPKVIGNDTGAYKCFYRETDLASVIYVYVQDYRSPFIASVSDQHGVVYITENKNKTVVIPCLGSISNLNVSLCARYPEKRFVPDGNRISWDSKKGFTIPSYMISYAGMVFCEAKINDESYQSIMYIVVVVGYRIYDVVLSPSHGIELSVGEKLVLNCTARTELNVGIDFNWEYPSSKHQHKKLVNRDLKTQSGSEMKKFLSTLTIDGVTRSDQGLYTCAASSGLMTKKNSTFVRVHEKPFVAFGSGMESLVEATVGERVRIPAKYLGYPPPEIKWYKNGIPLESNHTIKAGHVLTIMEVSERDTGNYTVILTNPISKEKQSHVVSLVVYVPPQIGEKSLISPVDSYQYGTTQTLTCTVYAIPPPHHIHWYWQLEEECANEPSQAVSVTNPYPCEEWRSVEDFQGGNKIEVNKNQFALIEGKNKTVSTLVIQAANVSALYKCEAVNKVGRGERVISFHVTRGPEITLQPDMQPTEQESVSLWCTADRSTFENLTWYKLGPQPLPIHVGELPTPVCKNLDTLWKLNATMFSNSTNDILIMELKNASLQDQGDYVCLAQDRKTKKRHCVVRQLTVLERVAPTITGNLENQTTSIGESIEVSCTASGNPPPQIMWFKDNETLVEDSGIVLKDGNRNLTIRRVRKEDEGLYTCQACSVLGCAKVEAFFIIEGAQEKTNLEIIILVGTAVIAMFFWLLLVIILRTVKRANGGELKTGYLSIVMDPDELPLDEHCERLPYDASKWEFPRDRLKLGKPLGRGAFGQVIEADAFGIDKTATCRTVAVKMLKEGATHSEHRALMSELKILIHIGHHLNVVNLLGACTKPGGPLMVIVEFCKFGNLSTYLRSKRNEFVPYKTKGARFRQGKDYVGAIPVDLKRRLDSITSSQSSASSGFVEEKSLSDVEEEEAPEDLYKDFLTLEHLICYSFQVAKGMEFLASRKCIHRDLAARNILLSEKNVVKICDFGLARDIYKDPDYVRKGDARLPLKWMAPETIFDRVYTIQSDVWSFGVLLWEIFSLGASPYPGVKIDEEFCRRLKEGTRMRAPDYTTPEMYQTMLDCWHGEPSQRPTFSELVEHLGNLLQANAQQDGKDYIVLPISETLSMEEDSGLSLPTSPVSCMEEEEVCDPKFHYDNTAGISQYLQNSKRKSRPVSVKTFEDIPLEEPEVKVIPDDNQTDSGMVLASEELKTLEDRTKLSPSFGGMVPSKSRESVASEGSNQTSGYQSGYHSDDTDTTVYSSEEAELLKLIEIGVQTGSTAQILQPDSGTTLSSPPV

leukocyte antigen-related protein tyrosine phosphatase (LAR)
VEGF-induced tyrosine phosphorylation of VEGFR2 in HUVECs overexpressing LAR (AdLAR) (VEGFR2): overexpression of LAR had no effect on VEGF-induced tyrosine phosphorylation of VEGFR2 in HUVECs | IGF-1-induced tyrosine phosphorylation of IGF-1Rβ in HUVECs overexpressing LAR (AdLAR); IP with anti-IGF-1Rβ, Western blot with anti-phosphotyrosine [1]: LAR overexpression inhibited IGF-1-induced tyrosine phosphorylation of IGF-1Rβ in a dose-dependent manner, with maximum inhibition at 2.5 MOI | IGF-1Rβ autophosphorylation in IGF-1-treated HUVECs after LAR knockdown with siRNA [1]: knockdown of endogenous LAR with LAR-specific siRNA (FIGS. 3A-3B) significantly increased IGF-1Rβ activity, without an apparent effect on IGF-1Rβ expression levels, in HUVEC treated with IGF-1

From patent US20130171163
